Measured values reported in patent US20240052048A1.

Biological target: monkey BCMA on BCMA-CHO cells (cynomolgus monkey)
Assay: flow cytometry (MFI) on CHO cells expressing monkey BCMA; EC50 table in the figure; fit value for a flat control curve

Chain of monkey BCMA on BCMA-CHO cells (cynomolgus monkey) (chain, as listed by the source): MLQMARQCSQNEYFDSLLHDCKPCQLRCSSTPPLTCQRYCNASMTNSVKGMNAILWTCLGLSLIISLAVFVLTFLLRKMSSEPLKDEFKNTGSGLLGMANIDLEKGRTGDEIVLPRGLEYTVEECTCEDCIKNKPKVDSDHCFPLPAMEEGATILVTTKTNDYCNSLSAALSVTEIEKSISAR

## Irrelevant antibody
  EC50: 0.357 µg/mL
